# Tests used:
# Experiment in all cases: ITC
# [1] = target: human TOM70 (106-608) E549I, C-terminal His-tagged (human) (UniProt O94826)
# [2] = target: human TOM70 (106-608) H583Q, C-terminal His-tagged (human) (UniProt O94826)
# [3] = target: human TOM70 (106-608) D545A, C-terminal His-tagged (human) (UniProt O94826)
# [4] = target: human TOM70 (106-608) E549A, C-terminal His-tagged (human) (UniProt O94826)
# [5] = target: human TOM70 (106-608) E477A, C-terminal His-tagged (human) (UniProt O94826)
# [6] = target: hTOM70 mutant H583Q (human)
# Chain of C-peptide (SARS-CoV-2 orf9b core sequence 44-70) (P0DTD2 44-70 limits assumed): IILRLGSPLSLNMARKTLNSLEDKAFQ
substance,measurement,setting,value
C-peptide (SARS-CoV-2 orf9b core sequence 44-70) (from UniProt P0DTD2 44-70),Ka,[1],93800 M⁻¹
same,Kd,[1],10.7 µM
same,stoichiometry N,[1],1.7
same,Ka,[2],1.01e+06 M⁻¹
same,stoichiometry N,[2],1.5
same,Ka,[3],20100 M⁻¹
same,Kd,[3],49.8 µM
same,stoichiometry N,[3],1
same,Ka,[4],43800 M⁻¹
same,Kd,[4],22.8 µM
same,stoichiometry N,[4],1.5
same,Ka,[5],3870 M⁻¹
same,Kd,[5],258 µM
same,stoichiometry N,[5],0
same,Kd,[6],0.99 µM
